Experimental data as given in a protein production outcome set (Wang et al. 2014).

Experiment: label from the status in PepcDB records
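Note: failed if final PepcDB status was selected cloned or expressed and not failed if soluble or beyond.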

MKKTVIKETERLLILLGATGLLSGIGIVMNGTPITAQATTTTTQTQGILHSGDFGTSHWYISDDLTLHIGAGTFANLSNSQSAPPWTAYGDQVAKIVIEGPVTLAPNSRELFGYLGATSIEGLDQIDASHVTNFEFAFFGIQVPNLDLTSWDVHNVTDAGFMFMRAQSDVINLSGWQMPKLKLAQWMFMLAPRVHELDLAGINFRNADATRALMNMNLTVIHLGPDSLLTGTNLQPFHNDAYQDMWQDIGDGTTEAPTGKNRYTYSQLMAEFKGAAPYTYVRAKNPGQPVTVQYLDQLNQALVKADTLTGYYGDTFTAQAKTFAGYHVTSVDGEPTGTFGSRPYTVTYHYAVDEKNQQSLLGEDATITVGDPAPTSETFKAKATDKDGQALPVVVDLSQATLNQPGRYPVTLTTRDGQSKAVTLTVKAADESSSSSSSSSIDRSHSSSTPTSSSNSDDSLSSGDLISGGDTDLAVFKGQAVYATKTVRLYQRPTFKASQVRARYAKQSRTKRPMFVVIGSAHSKHHALRFKVRDVNHHSKTAGKVGYITAKKAYVTNVYYQRTYTRVTVINPQGVNGYRTRKLTGKTRHYRRGQTLRVKRLVRYHLTTRYVLTNGRYVTTNKKLVKVQQNSVQQSTQHSAAVTTRTIK
protein production: failed

MKKVLALVAFVVLFSFSFLSAGVTAQAALKDGTYSVDYTVLQGDSDSVSMANDYFDKPATVTVNGGKSTVSLQVNHSKWITGLWVEGNAVSVTSKNTASDTRKVSFPVSTLSSPVNAKIKVDIDDDGLNYHHEYQIQLRFDEGAVKSSGAAV
protein production: failed

MKKVLPALLMGFVGLNASDRLLEIMRLYQKQGLEMVGQKLDSYLADKSFWAEELQNKDTDFGYYQNKQFLFVANKSKPSLEFYEIENNMLKKINSSKALVGSKKGDKTLEGDLATPIGVYRITQKLERLDQYYGVLAFVTNYPNLYDTLKKRTGHGIWVHGMPLNGDRNELNTKGCIAIENPLLSSYDKVLKGEKAFLITYEDKFFPSTKEELSMILSSLFQWKEAWARGDFERYMRFYNPNFTRYDGMKFNAFKEYKKRVFAKNEKKNIAFSSINVIPYPNSQNKRLFYVVFDQDYKAYQHNKLSYSSNSQKELYIEIENNQVSIIMEK
protein production: failed

MKKYNVDWNYWVVRFLFVMALIVGYLLITNYQHFVHSVSGLLGILSPFITGFVIAYLLSGSQKKIEGLLERVPLPVVKKAKHGLSVLLLYLIILFIFVLTLNYIVPLLISNLVDLANSLPTFYDHMVQFVMSLEDKGILKTAAIEKYLNSVLKDLSPERFLNQWTQALFSLGTLTKNVSSFFLNAFLTLIISIYALVFKQSILTFVEKAAHKLLSEKVYKQTQTWLNTTNKIFYKFISCQFLDACIIGVSSTILLSILNVKFAVTLGILLGICNMIPYFGSIFASIVAGVITLFTGGVTQAITVLLVLLILQQIDGNIIGPRIMGDALNVNPILIIVSITIGGAYFGVLGMFLAVPVAAIIKIIVSEWLNESKENDKIVDSIES
protein production: failed

MKLALVNRQVILPESGTESFQCHASTLVRLPCGTLVAAWFAGLREGSEDTAIWLSRYEHNIWTTPQRVAAREGEAHWNPVLFYPSDKLWLFYKVGSDVHVWKTWFITSSDRGFTWSTPAPLVNDDILPRGPVKNKLLLASNGAWIAPGSIESPERWRAFVDRSSDEGKHWSISFVPLEPDNAISGTNVALWDGIKKGRLWECCLENLLRWDGVIQPTLWESSPGHIHMLLRSTRGAIFRSDSIDYGATWSVARATSLPNNNSGIDLVSMQDGTLILALNPVNGNWGKRYPLSLIASQDNGESWLPLLDLESDHGEYSYPAIISEGGIVHITYTWNRKNIVYCRLQTVLEHHHHHH
protein production: failed

MKLATFDDGSRDGRLLVVARDLGHAVDASDIATSLQVALENWPQVEARLQALYQQLNDDAVAGAFALDLARLAAPLPRASQWLDGSCFLSHGALMQKAFNLDPIEGVEHTPLIYQGASDDFLGPLADIPLPSEAHGIDFEGEFAVLLDDVPMGCPAEQALQHVRLILQLNDVSLRALAPREMKTGFGFLQAKPASSFAPVAVTPDELGEAWRDGRVHLPLHVHWNGEWFGHPHGGAMHFGFHQLIAHAALTRRLSAGTLLGSGTVSNAERSVGSACIAERRAIETIACGAPRTAFMRFGDRVRMEARGPEGEVLFGAIDQRVVRGGWPCE
protein production: failed

MKLEKLIPWLAGGLAVVGAAIAVIPPSPVRGFDTDAFGRLPVLEGGRVKPVDSVSRNALLMIRGQQSFRYDPDGDGPQKGRTISSDEWILDVLFRPELADQYPVFVINDPEVLGLMGMRQSSNRYFAFSALVPHLEEIQKQAMAAHQVDAKQRTRFQSAIANLFERVYLYYRLKNTVQLAGSPGLAAEVASAGTPGAQQRHQAIEELAYFRPIPPAAGTTGDDWLNMGQALRGAASGQVGDALSGWARLSVAYMAQDPSSFGRAVADVTAADAAARPDSIDLAGHEIVFNRAQPFYAGMVVYVLAMLALFASWLWKPKILQPAAYGLLVAGALIHTLGLVSRVLLQGRPPVTNLYSSAVFVGWGAVVLGVILERIYRKGFATAVAAASGFASLIVAHHLSGDGDTMEMMRAVLDSNFWLATHVVTITIGYSGTFLAGAMAIGYTLRKHLVRKPDPGTTKALMGMTYGVICFALFFSFLGTVLGGIWADQSWGRFWGWDPKENGALLIVLWNAIILHARWGGFVRERGIMAMAIFGNVITSLSWFGVNMLGVGLHSYGFMDSAFWALTGFIASQLAIMAFTLLPAQFWRTAHAAGKQQEPSPEPGH
protein production: failed

MKLGVNLCFAVKRWLEPDRLAGLVRDDLGLEYVQYTYDLTDPWWPDIERDRRAIAYAKAFRKAGLTIESTFGGLASYTYNHFLAPTLELQSLGYQHLKRAIDMTAAMEVPATGMPFGSYSAADALNPARREEIYAIARDMWIELAAYAKRQGLSMLYVEPVPLATEFPSSAADAARLMADLDGRTEIPVRLLVDWGHALFEPLFGPEADMDHWMDLCQPWIAAYHIQQTDGQLDRHWSFTQPGVVTPQRLQDFWDKYALTDQTFFAEILYPFEARDEDVLADMIASVKALKAASPAA
protein production: not failed

MKLICSKANLLKGVNIVSKAVPTRTTMAILECILIDASANEIKLMANDMELGIETIIDGTIEERGIIALDAKIFSEIVRKLPDNDVTIETDASFKTVISCEKAKFNIIGKSGDDFSYIPYVERNESIVLSQFTLKEVIRQTIFSIADNDNNKLMTGELFEIEENKLRVVSLDGHRISIRYIEMKNHYDSKKVVVPGKTLQEISKIIPGSADEDVVIYITNNHIVFEFENTTVVSRLIEGEYFKIDQMLSSDYDTKVRINKRELLDCIDRATLLVKEGDKKPIIMNITDGNMELRINSFIGSMNEDIDIDKDGKDIMIGFNPKFFIDALRVIDEEEVNLYMVNPKAPCFIKDDEGKFIYLILPVNFNTAAN
protein production: not failed

MKLILAPMEGLTDPIMRDVLTHVGSFDWCVTEFIRVTDSVLPDHVYYTYCPELKNNGKTAAGTPVHVQFLGNNPDMLAANAEKVVALGAPAIDLNFGCPAKTVNRHRGGSILLDEPDVVHLLVKAVRDAVPAHIPVSAKMRLGYLDENHTMDNAYAIQEAGANWLTVHARTKADGYTPPAYWEKIQPIKDALSINVIANGEIWTNQDAKACQQQSGCEDLMIGRGAVTTPDLTLCIRQNVDEALMNWAALIELQQRFLNGEYKTEIGMIGRYKQWLGMMTKAYPEAKQLWDEIKRIKNLDEILLKLGRSS
protein production: failed

MKLKSLLLRYYPPGIMLEYEKHGELKTKSIDLLDLGPSTDVSALVEEIQKAEPLLTASRTEQVKLLIQRLQEKLGQNSNHTFYLFKVLKAHILPLTNVALNKSGSCFITGSYDRTCKLWDSASGEELNTLEGHRNVVYAIAFNNPYGDKIATGSFDKTCKLWSVETGKCYHTFRGHTAEIVCLSFNPQSTLVATGSMDTTAKLWDIQNGEEVYTLRGHSAEIISLSFNTSGDRIITGSFDHTVVVWDADTGRKVNILIGHCAEISSASFNWDCSLILTGSMDKTCKLWDATNGKCVATLTGHDDEILDSCFDYTGKLIATASADDGVSLCRPGRSAVARSWLTATCASQVQAILLPQPPELCHVLGNHV
protein production: failed

MKLKTFLIVGCLGGLFTLSSCTAPTNVKDYSAYVNPFIGTGGHGHTFPGAVVPHGMIQPSPDTRIDGWDACSGYYYADSTINGFSHTHVSGTGCCDYGDVLLMPTVGKQQYRTTDPQSQRLAYASSFSHKNEIAEPGYYSVFLDTYQVKAEISSTKRGAIHRYTFPENTESGFIIDLDYSLQRQTNSEMEIEVISDTEICGHKKTTYWAFDQYINFYAKFSKPFSYTLVTDSITMDNGKRLPVCKALLHFNTSKDEQVLVKVGVSAVDIAGARKNVESEIPGWDFEKVRKDARTAWNEYLSKIDITTSDKEDKAIFYTALYHTGISPNLFTDADGRYLGMDLEVHQGDTLNPIYTVFSLWDTFRALHPLMTIIDPDLNNHFINSLIKKHQEGGIYPMWDLASNYTGTMIGYHAVPVIVDAYMKGYRNFDTKEAYKACLRAAEYDTTGIKCPDLVLPHLMPKAKYYKNAIGYIPCDRENESVAKALEYAYDDWCISIFAEAMSDFESKAKYERFAKAYEFYFDKSIRFMRGLDSKGEWRTPFNPRASTHRSDDYCEGTAWQWTWFVPHDVEGLVNLMGGEDAFVQKLDSLFSADSSLEGETTSSDISGLIGQYAHGNEPSHHVIHLYNYVNHPWRTQELVDSVYRSQYANSIEGLSGNEDCGQMSAWYILNSMGFYQVCPGKPVYSIGRPAFDKAVINLPEGKTFSIVVKNNGKKNKYIESVLLNGKALNIPFFNHQDIANGGTMEIKMTDHPTKWGVLSPALSSKEEE
protein production: failed

MKLKYCHYAYDDEGYVIHMLTSNERTFFTNAYIIETKNSIVVVDTLMVNSDAILLRQYMDNINKPLIAVIITHGHPDHYNGTEIITGFKEVPIISTKGIRDCIQDTVDSKEVKWKPYFGQDWPEHKILPNQLVIDSEVVNLDGLDYSFRDLGAAESSSDLFFTLGEKRSVIFVGDVVFNNMHGFMNDGNSAQWLKVLQKLLTEIADVKLLFTGHGDPGDTHQLVQRQIDYISHYRSNLLAIIRGNQLEHHHHHH
protein production: failed

MKLLIKKITYIIFILCSYCSYGEAKIQLPSILGNGMVLQQKSEVRLWGKATPNKKVTIYTSWNAQQQEVNSNKKGDWIVTVTTPEAGGPYTIRISDGEELLLDDVLIGEVWLCSGQSNMEMPVKGFRGQPAAESQNTIVNVNPNRSLRLFTVQRAYSSILEEDVTGQWEKNTPKSVSTFSAVAYYYGDQLQKVLGIPVGLIHASWSGSSIEPWISKENLLQFPEVDLTPAENPQLKYANGTPTVLYNAMIKPLENYNIKGMIWYQGESNSARPEQYQRLFAVWAKQNRALFRSKDLPIYYTEIAPVASPVDRPFQRAIFREAQLESMHEVSNTGMAFTNDLGSEKFIHAPKKREIGQRLAYWALAKTYQLEGFEYSGPIHRSYMKNGKIIEILFDHADDGLNPENEPLVGFEIASEDSIFYPANAEIINGTSRVKVWSDKVAQPVYVRYAFRNFLRGNLVNNAGLPAAPFRMDLRKMDFQNPEKLGWARVTTFGKLPEYISVYHSPEWIESTRTNAYIAVVDTKKGGSLDVGGADSGVKTPIEFYQSEKRKPSIVLNGGYFANGRTVSLICKNGKILSDNISVVNRLLEGKKTAYYPTRSVFSLYTDGTYHVDWIYKSAQQTYAYDMPALNSSTRPPLSVPSKGFPKGAKVWTAEMGIGAGPILIKDGTIRNSWVEELLDVASGINPQTCQPRSAVGVTQDGKLILFVCEGREQTPDIPGMTLAQLARLMRSFGCVDALNLDGGGSSCMLINGKETIKPCNKYHHQRPVATVLFAR
protein production: failed

MKLLLTRPEGKNAAMASALDALAIPYLVEPLLSVEAAAVTQAQLDELSRADILIFISTSAVSFATPWLKDQWPKATYYAVGDATADALALQGITAERSPADSQATEGLLTLPSLEQVSGKQIVIVRGKGGREAMADGLRLRGANVSYLEVYQRACPPLDAPASVSRWQSFGIDTIVVTSGEVLENLINLVPKDSFAWLRDCHIIVPSARVETQARKKGLRRVTNAGAANQAAVLDALGM
protein production: not failed
